Laboratory results taken from the supplement of paper PMC7877785.
± gives the uncertainty stated by the source.

Assay: self-splicing fitness, log relative to wild type (ln ratio); higher = more splicing; Tetrahymena group I intron in knt gene, E. coli kanamycin selection, DiMSum; sequences stand for … in CUCUCU…GGAGGGAAAAGUUAUCAGGCAUGCACCUGGUAGCUAGUCUUUAAACCAAUAGAUUGCAUCGGUUUAAAAGGCAAGACCGUCAAAUUGCGGGAAAGGGGUCAACAGCCGUUCAGUACCAAGUCUCAGGGGAAACUUUGAGAUGGCCUUGCAAAGGGUAUGGUAAUAAGCUGACGGACAUGGUCCUAACCACGCAGCCAAGUCCUAAGUCAACAGAUCUUCUGUUGAUAUGGAUGCAGUUCACAGACUAAAUGUCGGUCGGGGAAGAUGUAUUCUUCUCAUAAGAUAUAGUCGGACCUCUCCUUAAUGGGAGCUAGCGGAUGAAGUGAUGCAACACUGGAGCCGCUGGGAACUAAUUUGUAUGCGAAAGUAUAUUGAUUAGUUUUGGAGUACUCGUGGUCG
Outline: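 The eight P1ex-region nucleotides of an intron in the knt kanamycin-resistance gene on pET-22b(+) were all randomised and the library put into E. coli BL21(DE3). Six replicate transformations were grown overnight at 37°C or 30°C on LB agar with or without 25 μg/mL kanamycin, together with 100 μg/mL carbenicillin, 50 μM IPTG and 0.2% rhamnose. Colonies were pooled and amplicon-sequenced on an Illumina HiSeq 2500. Fitness from DiMSum is the error-weighted combination of wild-type-normalised replicate fold changes, kanamycin over none.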

Sequence | self-splicing fitness (ln) (37 °C) | self-splicing fitness (ln) (30 °C)
AGGGAGCAAUAUUACGAUGG | -1.29 ± 0.32 | –
AGGGAGCAAUAUUACGCAGU | -1.44 ± 0.33 | -2.41 ± 0.47
AGGGAGCAAUAUUACGCCAA | -2.67 ± 0.38 | –
AGGGAGCAAUAUUACGCGAA | -1.48 ± 0.29 | -1.94 ± 0.4
AGGGAGCAAUAUUACGCUCG | -2.12 ± 0.3 | -2.31 ± 0.27
AGGGAGCAAUAUUACGGCAC | -1.77 ± 0.42 | –
AGGGAGCAAUAUUACGUACU | -0.673 ± 0.35 | -1.74 ± 0.26
AGGGAGCAAUAUUACGUCGC | – | -1.42 ± 0.34
AGGGAGCAAUAUUACGUCGG | -1.52 ± 0.38 | –
AGGGAGCAAUAUUACGUGAA | -2.53 ± 0.3 | -3.18 ± 0.32
AGGGAGCAAUAUUACGUUUG | -2.66 ± 0.35 | -3.56 ± 0.39
AGGUAGCAAUAUUACGAAUC | -2.2 ± 0.041 | -3.462 ± 0.031
AGGUAGCAAUAUUACGAAUU | -0.996 ± 0.035 | -1.85 ± 0.017
AGGUAGCAAUAUUACGAGGA | -2.43 ± 0.041 | -3.39 ± 0.034
AGGUAGCAAUAUUACGAGUA | -1.52 ± 0.035 | -2.415 ± 0.023
AGGUAGCAAUAUUACGAUUG | -2.44 ± 0.04 | -3.575 ± 0.026
AGGUAGCAAUAUUACGCAAG | -1.26 ± 0.034 | -2.25 ± 0.018
AGGUAGCAAUAUUACGCCCA | -0.0344 ± 0.039 | 0.15 ± 0.02
AGGUAGCAAUAUUACGCCUC | -3.34 ± 0.068 | -3.88 ± 0.05
AGGUAGCAAUAUUACGCCUG | -0.212 ± 0.035 | -0.743 ± 0.017

Sequence | self-splicing fitness (ln) (37 °C) | self-splicing fitness (ln) (30 °C)
AGGUAGCAAUAUUACGCGAG | -0.6 ± 0.032 | -1.32 ± 0.014
AGGUAGCAAUAUUACGCGUU | -0.903 ± 0.033 | -1.888 ± 0.015
AGGUAGCAAUAUUACGCUAA | -0.802 ± 0.035 | -1.66 ± 0.018
AGGUAGCAAUAUUACGCUAG | -2.89 ± 0.046 | -4.002 ± 0.038
AGGUAGCAAUAUUACGGACG | -0.546 ± 0.034 | -1.46 ± 0.015
AGGUAGCAAUAUUACGGCAC | -0.277 ± 0.035 | -0.781 ± 0.017
AGGUAGCAAUAUUACGGCCA | 0.165 ± 0.037 | 0.159 ± 0.018
AGGUAGCAAUAUUACGGCGC | 0.163 ± 0.033 | -0.0707 ± 0.015
AGGUAGCAAUAUUACGGGGG | -2.94 ± 0.044 | -3.715 ± 0.031
AGGUAGCAAUAUUACGGGUG | -1.99 ± 0.036 | -3.141 ± 0.021
AGGUAGCAAUAUUACGGUAU | -1.07 ± 0.033 | -1.957 ± 0.015
AGGUAGCAAUAUUACGUAAC | -1.18 ± 0.035 | -2.092 ± 0.019
AGGUAGCAAUAUUACGUAUU | -1.45 ± 0.035 | -2.78 ± 0.018
AGGUAGCAAUAUUACGUCAC | -2.23 ± 0.042 | -3.764 ± 0.036
AGGUAGCAAUAUUACGUCCA | -0.214 ± 0.035 | -0.144 ± 0.015
AGGUAGCAAUAUUACGUUCC | -0.623 ± 0.036 | -0.904 ± 0.018
AGGUAGCAAUAUUACGUUCU | -0.545 ± 0.033 | -0.768 ± 0.014
AGUAAGCAAUAUUACGAAUA | – | -1.84 ± 0.38
AGUAAGCAAUAUUACGACAG | -1.94 ± 0.22 | -2.95 ± 0.2
AGUAAGCAAUAUUACGAUCG | -0.248 ± 0.19 | -0.735 ± 0.17
